According to patent publication US20140011734A1 (Sanofi, published 2014):
Starred links: 1 amine or outer side, 2 acyl side, 3 side chain; linkers in the order of their positions; H or OH if unused. Non-standard residues stand in square brackets, D forms with d. 4‑aminomethylphenylacetic acid = (4-aminomethyl-phenyl)-acetic acid ring linker, O=C(Cc1ccc(CN[*:1])cc1)[*:2]; Chg = N[C@H](C(=O)O)C1CCCCC1; Nle = CCCC[C@H](N)C(=O)O; Orn = NCCC[C@H](N)C(=O)O; Nva = CCC[C@H](N)C(=O)O; Dap = NC[C@H](N)C(=O)O; Ahp = NCCCCCCC(=O)O; Ahx = NCCCCCC(=O)O; GABA = NCCCC(=O)O; βAla = NCCC(=O)O

Biological target: T1, blood platelet receptor glycoprotein Ib-IX-V complex (GPIb) (human, UniProt P07359 17-652; P13224 26-206; P14770 17-177; P40197 17-560)
T1 construct: whole, on cells; also called GPIb complex; GPIb receptor
T1 sequence (P07359 17-652, chain 1 of 4): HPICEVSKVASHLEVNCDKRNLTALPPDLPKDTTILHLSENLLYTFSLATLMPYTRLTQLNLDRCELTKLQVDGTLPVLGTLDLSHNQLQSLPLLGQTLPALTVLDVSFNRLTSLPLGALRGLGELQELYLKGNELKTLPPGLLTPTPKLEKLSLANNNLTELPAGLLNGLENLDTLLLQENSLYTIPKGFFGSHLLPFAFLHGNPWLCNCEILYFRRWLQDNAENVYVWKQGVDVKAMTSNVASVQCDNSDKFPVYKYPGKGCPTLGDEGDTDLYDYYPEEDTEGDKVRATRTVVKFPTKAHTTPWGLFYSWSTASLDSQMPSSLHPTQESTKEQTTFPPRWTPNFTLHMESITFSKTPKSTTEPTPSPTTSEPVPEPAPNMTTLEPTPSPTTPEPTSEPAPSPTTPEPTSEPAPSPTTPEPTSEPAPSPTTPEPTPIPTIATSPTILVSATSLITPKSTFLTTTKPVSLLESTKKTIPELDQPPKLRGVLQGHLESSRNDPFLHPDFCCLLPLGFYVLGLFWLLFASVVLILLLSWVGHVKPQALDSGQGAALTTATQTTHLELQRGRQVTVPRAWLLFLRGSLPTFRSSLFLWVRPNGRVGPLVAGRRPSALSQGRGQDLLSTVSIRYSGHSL
T1 sequence (P13224 26-206, chain 2 of 4): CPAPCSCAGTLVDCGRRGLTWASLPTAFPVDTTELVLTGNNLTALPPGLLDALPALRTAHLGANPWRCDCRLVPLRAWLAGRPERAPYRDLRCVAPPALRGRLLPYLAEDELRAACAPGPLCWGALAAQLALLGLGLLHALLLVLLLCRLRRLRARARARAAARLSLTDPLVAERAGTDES
T1 sequence (P14770 17-177, chain 3 of 4): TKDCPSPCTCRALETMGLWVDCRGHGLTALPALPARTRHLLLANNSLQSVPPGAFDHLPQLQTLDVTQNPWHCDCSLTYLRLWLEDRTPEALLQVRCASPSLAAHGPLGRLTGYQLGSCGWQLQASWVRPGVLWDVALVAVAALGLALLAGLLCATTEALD
T1 sequence (P40197 17-560, chain 4 of 4): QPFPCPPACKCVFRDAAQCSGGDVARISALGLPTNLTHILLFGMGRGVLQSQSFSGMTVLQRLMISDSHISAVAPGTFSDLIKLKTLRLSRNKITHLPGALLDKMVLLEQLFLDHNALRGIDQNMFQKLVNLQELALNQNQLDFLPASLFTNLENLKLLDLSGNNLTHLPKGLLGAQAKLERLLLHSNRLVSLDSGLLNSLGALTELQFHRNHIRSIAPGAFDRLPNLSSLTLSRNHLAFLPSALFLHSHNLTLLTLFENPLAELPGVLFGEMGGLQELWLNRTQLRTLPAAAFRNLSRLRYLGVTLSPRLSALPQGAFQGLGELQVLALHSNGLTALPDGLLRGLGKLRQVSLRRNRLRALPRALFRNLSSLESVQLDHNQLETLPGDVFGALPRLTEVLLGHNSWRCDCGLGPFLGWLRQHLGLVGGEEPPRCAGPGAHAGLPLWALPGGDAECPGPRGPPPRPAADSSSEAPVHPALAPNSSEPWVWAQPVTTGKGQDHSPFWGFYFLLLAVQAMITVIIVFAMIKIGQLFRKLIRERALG
Assay: inhibition of static adhesion of human platelets to coated vWF-A1; grade B = IC50 between 1 µM and 10 µM
Description: Platelet rich plasma was carefully transferred again to fresh containers, PGE1 (0.5 μg/ml, Sigma) was added and the suspension was allowed to rest for 5 min. This was followed by another centrifugation step for 15 min at 360 g. The supernatant was discarded and the cell pellets were carefully resuspended in tyrode buffer (NaCl, 137 mM (Sigma S-3014); KCl, 2.7 mM (Sigma P-9541); NaHCO₃,12 mM (Riedel deHaen 31437); NaH₂PO₄×2H₂O, 0.36 mM (Merck 6345); MgCl₂×6 H₂O, 1 mM (Sigma M-2670); Hepes, 10 mM (Sigma H-1016); glucose, 5.6 mM (Merck 8342); BSA, 0.1% (Sigma A7906)), and PGE1 (0.25 μg/ml) was added. After 5 min of resting the suspension was spun down for 15 min at 300 g. The supernatant was discarded and the pellets were carefully resuspended in TBS buffer (Tris-HCl, 50 mM (Fluka 93371); NaCl, 120 mM (Sigma S-3014); KCl, 2.7 mM (Sigma P-9541); CaCl₂, 0.05 mM (Sigma C-3306); MgCl₂×6 H₂O, 2 mM (Sigma M-2670); BSA, 0.1% (Sigma A7906); pH 7.4). The platelet count was adjusted to 2×10⁵ cells/μl, and the suspensions from individual donors were pooled at this stage. The platelets were allowed to rest for 30 min at room temperature before calcein AM (2.5 μM per 2×10⁵ cells/pi (Molecular Probes C-3099)) was added. This was followed by 15 min incubation in the dark. Cells were diluted to 5×10⁴ cells/μl and ReoPro (3 μg/ml (Centocor B. V., Leiden, N L)) was added, followed by a 10 min incubation period in the dark before adding the platelets to the assay plates.
96 well plates (Greiner hb, black, clear bottom, F, 655097) were coated with human recombinant vWF-A1 domain (1.5 μg/well, AA 475-706, expressed in E. coli) in Tris buffer (pH 7.4; Tris-HCl, 25 mM; NaCl, 150 mM) and incubated for 1 h at room temperature. After washing the wells 3× with TBS, blocking buffer (TBS with 5% BSA) was added followed by an incubation for 1 h. The wells were washed again 3× with TBS before 200 μl TBS were added to each well, preventing them from drying out. TBS was flicked out and serial dilutions of the test compound were added. The washed and calcein AM labeled thrombocytes were added to the wells (2.5×10⁶ cells/well). Following an adhesion period of 1.5 h in the dark the wells were washed 3× with TBS. Measurement of fluorescence per well was performed in a SpectraMax M5 reader (Molecular Devices). From the raw data % inhibition and IC₅₀ values were calculated.

Row | IC50 | Binder
1 | 1 to 10 µM | cyclo(LHNL[GABA]NTERMA) (SMILES CSCC[C@@H]1NC(=O)[C@H](CCCNC(=N)N)NC(=O)[C@H](CCC(=O)O)NC(=O)[C@H]([C@@H](C)O)NC(=O)[C@H](CC(N)=O)NC(=O)CCCNC(=O)[C@H](CC(C)C)NC(=O)[C@H](CC(N)=O)NC(=O)[C@H](Cc2c[nH]cn2)NC(=O)[C@H](CC(C)C)NC(=O)[C@H](C)NC1=O) [Cyclo[Leu-His-Asn-Leu-NH-(CH2)3-CO-Asn-Thr-Glu-Arg-Met-Ala]]
2 | 1 to 10 µM | cyclo(LHNL[βAla]ATERMA) (SMILES CSCC[C@@H]1NC(=O)[C@H](CCCNC(=N)N)NC(=O)[C@H](CCC(=O)O)NC(=O)[C@H]([C@@H](C)O)NC(=O)[C@H](C)NC(=O)CCNC(=O)[C@H](CC(C)C)NC(=O)[C@H](CC(N)=O)NC(=O)[C@H](Cc2c[nH]cn2)NC(=O)[C@H](CC(C)C)NC(=O)[C@H](C)NC1=O) [Cyclo[Leu-His-Asn-Leu-NH-(CH2)2-CO-Ala-Thr-Glu-Arg-Met-Ala]]
3 | 1 to 10 µM | cyclo(L[dH]NL[Ahp]TERMA) (SMILES CSCC[C@@H]1NC(=O)[C@H](CCCNC(=N)N)NC(=O)[C@H](CCC(=O)O)NC(=O)[C@H]([C@@H](C)O)NC(=O)CCCCCCNC(=O)[C@H](CC(C)C)NC(=O)[C@H](CC(N)=O)NC(=O)[C@@H](Cc2c[nH]cn2)NC(=O)[C@H](CC(C)C)NC(=O)[C@H](C)NC1=O) [Cyclo[Leu-D-His-Asn-Leu-NH-(CH2)6-CO-Thr-Glu-Arg-Met-Ala]]
4 | 1 to 10 µM | cyclo(LHNL[4‑aminomethylphenylacetic acid]TERMA) (SMILES CSCC[C@@H]1NC(=O)[C@H](CCCNC(=N)N)NC(=O)[C@H](CCC(=O)O)NC(=O)[C@H]([C@@H](C)O)NC(=O)Cc2ccc(cc2)CNC(=O)[C@H](CC(C)C)NC(=O)[C@H](CC(N)=O)NC(=O)[C@H](Cc2c[nH]cn2)NC(=O)[C@H](CC(C)C)NC(=O)[C@H](C)NC1=O) [Cyclo[Leu-His-Asn-Leu-NH-X4-X3-X2-X1-CO-Thr-Glu-Arg-Met-Ala] of example 3]
5 | 1 to 10 µM | cyclo(LHNL[Ahx]TERMA) (SMILES CSCC[C@@H]1NC(=O)[C@H](CCCNC(=N)N)NC(=O)[C@H](CCC(=O)O)NC(=O)[C@H]([C@@H](C)O)NC(=O)CCCCCNC(=O)[C@H](CC(C)C)NC(=O)[C@H](CC(N)=O)NC(=O)[C@H](Cc2c[nH]cn2)NC(=O)[C@H](CC(C)C)NC(=O)[C@H](C)NC1=O) [Cyclo[Leu-His-Asn-Leu-NH-(CH2)5-CO-Thr-Glu-Arg-Met-Ala]]
6 | 1 to 10 µM | cyclo(LHNL[Ahp]TERM[Nva]) (SMILES CCC[C@@H]1NC(=O)[C@H](CCSC)NC(=O)[C@H](CCCNC(=N)N)NC(=O)[C@H](CCC(=O)O)NC(=O)[C@H]([C@@H](C)O)NC(=O)CCCCCCNC(=O)[C@H](CC(C)C)NC(=O)[C@H](CC(N)=O)NC(=O)[C@H](Cc2c[nH]cn2)NC(=O)[C@H](CC(C)C)NC1=O) [Cyclo[Leu-His-Asn-Leu-NH-(CH2)6-CO-Thr-Glu-Arg-Met-Nva]]
7 | 1 to 10 µM | cyclo(LHNL[Ahp]TE[Dap]MA) (SMILES CSCC[C@@H]1NC(=O)[C@H](CN)NC(=O)[C@H](CCC(=O)O)NC(=O)[C@H]([C@@H](C)O)NC(=O)CCCCCCNC(=O)[C@H](CC(C)C)NC(=O)[C@H](CC(N)=O)NC(=O)[C@H](Cc2c[nH]cn2)NC(=O)[C@H](CC(C)C)NC(=O)[C@H](C)NC1=O) [Cyclo[Leu-His-Asn-Leu-NH-(CH2)6-CO-Thr-Glu-Dpr-Met-Ala]]
8 | 1 to 10 µM | cyclo(L[Orn]NL[Ahp]TERMA) (SMILES CSCC[C@@H]1NC(=O)[C@H](CCCNC(=N)N)NC(=O)[C@H](CCC(=O)O)NC(=O)[C@H]([C@@H](C)O)NC(=O)CCCCCCNC(=O)[C@H](CC(C)C)NC(=O)[C@H](CC(N)=O)NC(=O)[C@H](CCCN)NC(=O)[C@H](CC(C)C)NC(=O)[C@H](C)NC1=O) [Cyclo[Leu-Orn-Asn-Leu-NH-(CH2)6-CO-Thr-Glu-Arg-Met-Ala]]
9 | 1 to 10 µM | cyclo([Nle]HNL[Ahp]TERMA) (SMILES CCCC[C@@H]1NC(=O)[C@H](C)NC(=O)[C@H](CCSC)NC(=O)[C@H](CCCNC(=N)N)NC(=O)[C@H](CCC(=O)O)NC(=O)[C@H]([C@@H](C)O)NC(=O)CCCCCCNC(=O)[C@H](CC(C)C)NC(=O)[C@H](CC(N)=O)NC(=O)[C@H](Cc2c[nH]cn2)NC1=O) [Cyclo[Nle-His-Asn-Leu-NH-(CH2)6-CO-Thr-Glu-Arg-Met-Ala]]
10 | 1 to 10 µM | cyclo([Chg]HNL[Ahp]TERMA) [Cyclo[Chg-His-Asn-Leu-NH-(CH2)6-CO-Thr-Glu-Arg-Met-Ala]]
11 | 1 to 10 µM | cyclo(IHNL[Ahp]TERMA) (SMILES CC[C@H](C)[C@@H]1NC(=O)[C@H](C)NC(=O)[C@H](CCSC)NC(=O)[C@H](CCCNC(=N)N)NC(=O)[C@H](CCC(=O)O)NC(=O)[C@H]([C@@H](C)O)NC(=O)CCCCCCNC(=O)[C@H](CC(C)C)NC(=O)[C@H](CC(N)=O)NC(=O)[C@H](Cc2c[nH]cn2)NC1=O) [Cyclo[Ile-His-Asn-Leu-NH-(CH2)6-CO-Thr-Glu-Arg-Met-Ala]]
12 | 1 to 10 µM | cyclo(LHNL[Ahp]SERMA) (SMILES CSCC[C@@H]1NC(=O)[C@H](CCCNC(=N)N)NC(=O)[C@H](CCC(=O)O)NC(=O)[C@H](CO)NC(=O)CCCCCCNC(=O)[C@H](CC(C)C)NC(=O)[C@H](CC(N)=O)NC(=O)[C@H](Cc2c[nH]cn2)NC(=O)[C@H](CC(C)C)NC(=O)[C@H](C)NC1=O) [Cyclo[Leu-His-Asn-Leu-NH-(CH2)6-CO-Ser-Glu-Arg-Met-Ala]]
13 | 1 to 10 µM | cyclo(LHNL[Ahp]LERMA) (SMILES CSCC[C@@H]1NC(=O)[C@H](CCCNC(=N)N)NC(=O)[C@H](CCC(=O)O)NC(=O)[C@H](CC(C)C)NC(=O)CCCCCCNC(=O)[C@H](CC(C)C)NC(=O)[C@H](CC(N)=O)NC(=O)[C@H](Cc2c[nH]cn2)NC(=O)[C@H](CC(C)C)NC(=O)[C@H](C)NC1=O) [Cyclo[Leu-His-Asn-Leu-NH-(CH2)6-CO-Leu-Glu-Arg-Met-Ala]]
14 | 1 to 10 µM | cyclo(LHNL[Ahp]TERIA) (SMILES CC[C@H](C)[C@@H]1NC(=O)[C@H](CCCNC(=N)N)NC(=O)[C@H](CCC(=O)O)NC(=O)[C@H]([C@@H](C)O)NC(=O)CCCCCCNC(=O)[C@H](CC(C)C)NC(=O)[C@H](CC(N)=O)NC(=O)[C@H](Cc2c[nH]cn2)NC(=O)[C@H](CC(C)C)NC(=O)[C@H](C)NC1=O) [Cyclo[Leu-His-Asn-Leu-NH-(CH2)6-CO-Thr-Glu-Arg-Ile-Ala]]
15 | 1 to 10 µM | cyclo(LHNL[Ahp]HERMA) (SMILES CSCC[C@@H]1NC(=O)[C@H](CCCNC(=N)N)NC(=O)[C@H](CCC(=O)O)NC(=O)[C@H](Cc2c[nH]cn2)NC(=O)CCCCCCNC(=O)[C@H](CC(C)C)NC(=O)[C@H](CC(N)=O)NC(=O)[C@H](Cc2c[nH]cn2)NC(=O)[C@H](CC(C)C)NC(=O)[C@H](C)NC1=O) [Cyclo[Leu-His-Asn-Leu-NH-(CH2)6-CO-His-Glu-Arg-Met-Ala]]
16 | 1 to 10 µM | cyclo(LHNL[Ahp]TEKMA) (SMILES CSCC[C@@H]1NC(=O)[C@H](CCCCN)NC(=O)[C@H](CCC(=O)O)NC(=O)[C@H]([C@@H](C)O)NC(=O)CCCCCCNC(=O)[C@H](CC(C)C)NC(=O)[C@H](CC(N)=O)NC(=O)[C@H](Cc2c[nH]cn2)NC(=O)[C@H](CC(C)C)NC(=O)[C@H](C)NC1=O) [Cyclo[Leu-His-Asn-Leu-NH-(CH2)6-CO-Thr-Glu-Lys-Met-Ala]]
17 | 1 to 10 µM | cyclo(LHNL[Ahp]TERMQ) (SMILES CSCC[C@@H]1NC(=O)[C@H](CCCNC(=N)N)NC(=O)[C@H](CCC(=O)O)NC(=O)[C@H]([C@@H](C)O)NC(=O)CCCCCCNC(=O)[C@H](CC(C)C)NC(=O)[C@H](CC(N)=O)NC(=O)[C@H](Cc2c[nH]cn2)NC(=O)[C@H](CC(C)C)NC(=O)[C@H](CCC(N)=O)NC1=O) [Cyclo[Leu-His-Asn-Leu-NH-(CH2)6-CO-Thr-Glu-Arg-Met-Gln]]
18 | 1 to 10 µM | cyclo(LHNL[Ahp]TERMR) (SMILES CSCC[C@@H]1NC(=O)[C@H](CCCNC(=N)N)NC(=O)[C@H](CCC(=O)O)NC(=O)[C@H]([C@@H](C)O)NC(=O)CCCCCCNC(=O)[C@H](CC(C)C)NC(=O)[C@H](CC(N)=O)NC(=O)[C@H](Cc2c[nH]cn2)NC(=O)[C@H](CC(C)C)NC(=O)[C@H](CCCNC(=N)N)NC1=O) [Cyclo[Leu-His-Asn-Leu-NH-(CH2)6-CO-Thr-Glu-Arg-Met-Arg]]
19 | 1 to 10 µM | cyclo(LHNL[Ahp]DERMA) (SMILES CSCC[C@@H]1NC(=O)[C@H](CCCNC(=N)N)NC(=O)[C@H](CCC(=O)O)NC(=O)[C@H](CC(=O)O)NC(=O)CCCCCCNC(=O)[C@H](CC(C)C)NC(=O)[C@H](CC(N)=O)NC(=O)[C@H](Cc2c[nH]cn2)NC(=O)[C@H](CC(C)C)NC(=O)[C@H](C)NC1=O) [Cyclo[Leu-His-Asn-Leu-NH-(CH2)6-CO-Asp-Glu-Arg-Met-Ala]]
